Results taken from publication PMC7060721.

Biological target: ENLARGED VESSEL ELEMENT (EVE) homolog of Physcomitrella patens (Physcomitrella patens)
Assay: SEC-MALS

stoichiometry N: 5
Sequence: ENLARGED VESSEL ELEMENT (EVE) homolog of Physcomitrella patens (natural protein)
